Experimental findings from patent US20180049457A1, “ENZYMATIC SYNTHESIS OF SOLUBLE GLUCAN FIBER” (E I DU PONT DE NEMOURS AND COMPANY, priority 2014, published 2018) are described below.

This assay can be described thus: GTF activity of strains (PAHBAH assay). It is filed as biochemical. The note with it: Experiment Number 3; enzyme expressed in B. subtilis host. How it is done: GTF activity of the strains was analyzed by PAHBAH assay in three separate experiments. Due to minor variations between the expeirments, Table 2 lists the activity of the truncated enzymes in the B. subtilis host along with the experiment in which the activity was measured. Most of the T1, T2, and T6 truncations decreased the activity of the enzymes, whereas the T4 and T5 C-terminal truncations retained similar activity relative to the respective N terminal-only truncations (NT). […] To identify specific amino acid residues within the catalytic domain that may be involved in producing the soluble α-glucan fiber, we analyzed the crystal structures (PDB Identifiers: 3AIB, 3AIC, and 3HZ3) of the catalytic domains of three glucosyltransferases to identify residues within 8 Angstroms of the bound ligand. 57 residues met that criterion. A motif was generated based on the corresponding 57 amino acids in GTF0459 and each of the identified homologs. The motif was then used to generate a consensus sequence to capture the variability in the catalytic domains of GTF0459 and the identified homologs. The consensus sequence is provided as SEQ ID NO: 153.

B1: GTF3808T5: T5 C-terminal truncation of GTF3808, SEQ ID NO: 124, strain SG1330 (protein)
chain: INGKQYYVNSDGSVRKNFVFEQDGKSYYFDAETGALATKSQDEFSTEPIKATVDFSSGNQLYKNDDKSLDQLDTFITADAWYRPKSILKDGKTWTASTEADKRPLLMVWWPDKSTQVNYLNYMQNQGLGAGSFSTNSSQESLDQAAKMVQTKIEERIAREGNTNWLRTSIDQFIKTQPGWNSSTENSSYDHLQGGQLLFNNSKGDTGNRTSHANSDYRLLNRTPTNQTGTRKYFKDNSIGGLEFLLANDIDNSNPAVQAEQLNWLHFMMNIGSIMANDPTANFDGLRVDALDNVDADLLQIASDYFKAAYGVDKSEANAIKHLSYLEAWSANDPYYNKDTKGAQLPIDNALRNALTNLLMRDKNTRMQLGDMTAFINSSLNPRGANDKNGERMANYIFTRAHDTEAQTIIQRIIRDRINPNLFGYNFTRDEIKKAFEIYNEDIDKAHKTYASYNLPSVYALMLTNKDSVTRVYYGDLYREDGHYMAKKTPYFDAIDTLLRARIKYVAGGQDMEVKKVGNDGLLTSVRYGKGANNRTDLGTSETRTQGMGVIMTNNYDFRLGSNETVTMNMGRAHRNQLYRPLLLTTKDGIATYLNDSDVPKNLLKRTDWNGNLTFNANDVFGVENVQVSGYLGVWVPYGAKANQDARTQPSNRANSDGQVYKSSAALDSQVMYEAFSNFQAFADDQPELYMNRVLAKNTDLLKAWGITSVGLPPQYVSSKDGTFLDSTIDNGYAFDDRYDMALSQNNKYGSLEDLLNVLRALHKDGIQAIADWVPDQIYNLPGKEVVNATRVNGYGNHQVGYQIIDQAYVANTRTDGTDYQGKYGGAFLDELKAKYPSIFNRVQISNGKQLPTNEKITKWSAKYFNGTNILGRGINYVLRDDKTNQYFNTSANSQLLPTPLRDTGAITSTQVFQRRGQDVYFLRDNQAVKNEFVQDGNGNWYYFGGDGKMTKGAQNINNKDYYFFDNGIQLRNALRRASNGYTYYYGLDGAMVKNAFVDFDDKHKQ
modifications: T5 C-terminal truncation of GTF3808
Consider B1, for which the “GTF activity of strains: Acitivity” value is given as 36.2 U/mL.
